The data set is described as follows: soluble on expression in E. coli; label from the status in PepcDB or PDB records.
“MPQITLSAEVQPEQMGQRLDQTLAELFPEYSRSRLKTWIEADLVKLNDRITNIPREKVLGGERIEIIVEVEDETRFEAENIPLNIVYEDDDIIVINKPKDLVVHPGAGNPNGTVLNALLYHYPPIVEVPRAGIVHRLDKDTTGLMVVAKTIPAQTKLVRDLQKRKITREYEAVASGIMTKGGTVDQPMARHATKRTLMAVHPMGKPAVTHYRIMENYRNYTRLRLRLETGRTHQIRVHMAHIAHPLLGDQTYGGRPRPPKNASEDFMEVLRNFKRQALHAVMLRLAHPITGEMMEWYAPLPDDFVELLNALKADYLEHQDELDY”: the “soluble on expression in E. coli” value is recorded as “soluble”.

On to “MPQYKLTYFDLRGWAEPARQLFHLSHTPYDDIRIPMADTEGKWEKMRDKTPFGQLPVLNVDGFDIPQSAAICRYLAKKFGYAGKTPEEEAWADAVVDQFKDFSVAFKTLLFATRAGKPEEEILKIRYEIFNPARDVYFILLNRILKKSKSGYLVGDGLTWADLVIADNLHSLEKLRAIDDDDEGHQNLKKYKEKIYGTPDLEDHIATRMDTEV”, for which the “soluble on expression in E. coli” value is “not soluble”.

As for “MPRAYWKGTLKLSLVTCPVALYPATTSVEKTRFHMINAETGNRLKQQMIDEDTGDVVEKDQKARGYEVRKGKYIEIEKDELEAVQIESTHTIDIDSFVPADEIDQRFLNHPYYIVPDGKAGTDAFAVIRDAMKDKGHVALGRIVLTNREHVLAIEPFGKGLLATTLRYPYELRDAD”, the “soluble on expression in E. coli” value is given as “not soluble”.

On to “MPRFSCYEVRSEFPELERGIVYLDNAASTLKPRRVVEAMREFSYRSYANVHRGVHRLSMEASKAYEDAHEVVARLVGGSWDEVVFTRNTTEAMQLAALTLAYNGLLRGGEVLVTAADHHSTLLPWVRAARLGGGRARILPLDGRGVPRWDLLEDYITEDTRAVAVGHVSNVTGVVAPVEDIVKAAKKVGALVVLDSAQGVPHLPVDFRRMGVDMAAFSGHKMLGPTGIGVLWARRDLLEELEPPLGGGGTVSRVRLQGGSVEIEWEEPPWKFEAGTPPIIEAVGLAEAANMLMEIGMEHVARHEDELTSHTMKLLEPLYSEGLIRYVGPDKPGERHGIVSITTHLKSPDELGLLLDRRGIAVRTGLHCAHILHDHVDASMGSVWASFYIYNCKEDAERLAEALEEILTTRR”, for which the “soluble on expression in E. coli” value is reported as “soluble”.

Consider “MPRHETDCRYFANGYCSKGNTCTFTHDVATRNENICHFNLVGKCSYGRACRFLHTRPRNDELPSCSTPQTSQNQQNLQNSGQRVRPKQLPELKFNAQAAEFVPRWKMPQRGPVTSYAGAAASADHGESSSSFQSSHEQAQLMMCPYHQKSGDCNRQDMDCPFAHGNYCDMCQQWSLHPYNAELRKKHENECVANHTTEMERAFLLQKTEQKTCGICMENIFEKNLRFGILNGCQHCFCLDCIRQWRSKDQENVELATKTVRSCPECRQHSDYVIPSLFWVESGQEKDLLIEMYKENTKRKICKYYSNERSRGACPFGNKCFYKHQLPDGSIDPGEAPSSRRRPRLVDFLFDDNSDSDEETFRRFQEEHEEEQEELLRFVAETLPEADEESELFRQITEVLRHYQISGHRRGFQ”, for which the “soluble on expression in E. coli” value is “not soluble”.

Turning to “MPRPQGTVAAAAATTSMSSTRARKDPLRRIGNGNAVAGGLDMTRVGILSDRELAFFQRLAYTGSQAAEQQQRDARKQEEDRRRELSKTRTAGWTDTIEARHDQFVQAQQDAKDAAEARQKVLDELYAKQLEEEHKAVIARQALEHLKEDPRGRHLRSMNMLHEALKARKEQVAYKQMLQREDEAQNANAQREFQLQRWGDQAEELHKKLKARQRNVEEKNANLETVLFQIDQRRQERAVQQQDRKHIDQEAAEERAEQQEEAAQRRARELENGAYNKAHSRPALTRSEKLQTRVAENVKDEAALRAEEEKVDSIKRWVMERQQNKLAAFEERKKAGLRRYLDEAKQENLPTYRTQDVFEKGESFLQKLYDGDVKQQEKQHEYRLEMEQQRLEMEEQKAAEARGDVVGSGDGADGSTSRRHAAATTAAGFLNKAEEMAYAEEMRRYPEQLRAKEAEEAAARRAEALRIERIQKLQAAEKRENARRAVEARREEFRQQQSQQEADDARYRAYIDSVVPADMDPILYRKATQLH”, the “soluble on expression in E. coli” value is recorded as “soluble”.

Consider “MPRVKAAQAGRQSSAKRHLAEQFAVGEIITDMAKKEWKVGLPIGQGGFGCIYLADMNSSESVGSDAPCVVKVEPSDNGPLFTELKFYQRAAKPEQIQKWIRTRKLKYLGVPKYWGSGLHDKNGKSYRFMIMDRFGSDLQKIYEANAKRFSRKTVLQLSLRILDILEYIHEHEYVHGDIKASNLLLNYKNPDQVYLVDYGLAYRYCPEGVHKEYKEDPKRCHDGTIEFTSIDAHNGVAPSRRGDLEILGYCMIQWLTGHLPWEDNLKDPKYVRDSKIRYRENIASLMDKCFPEKNKPGEIAKYMETVKLLDYTEKPLYENLRDILLQGLKAIGSKDDGKLDLSVVENGGLKAKTITKKRKKEIEESKEPGVEDTEWSNTQTEEAIQTRSRTRKRVQK”, for which the “soluble on expression in E. coli” value is recorded as “soluble”.

Consider “MPSLGEAPQDLQRSQERRRIERIFAQGGKGVASPHRFPGPLPMLQNIPTHVIAGPLGAGKTSLIRHLLSQRPAAERWAVLINEFGQIGLDAALLTRDEDGIALGEVAGGCLCCVNGAPFQVGLGRLLRKARPDRLLIEPSGLGHPAQLLKQLNEAPWKGVLAVQPCVLVLDAQALAAGKPLPRAQQDALSSAGLLVLNKDELLSDSDRLRVLEQLPDLPLFWTRHAALPLAELPGLGASAEAALEQSDIPQGLAQLPAVWSDPTLPICLSQSQEDGWSIGWRWHPSQQFDLVRVEHWLQNLDWRRAKLVLHSDQGWRSGNGLDNSPLNWLPSEWRRDSRLELIFSSPQDIAVLQASLDACRLLEHHHHHH”, for which the “soluble on expression in E. coli” value is listed as “not soluble”.

Take “MPSQITRSSHSSLPEVAPASGDAAGVSEQTPQQARTVAFFASGELAVAFGRTSTAPAQDSVRLLSALQRELDKQQPSWPTVAQLCHSLAEVAKTEQGWHQLASEDQAPAPALKDLLERCIGRLADMPASHASHDSLSLACEGLRTARLHQSVARLTARPPALARAIPDLLALTHLDPETLGAEPPVVSSYTLFSHFVHTAKQRTAELNDSLQRQPEAVVSLLRSHADTLNDLETLPGALQALTENCQDAPACNELRELAEVVGALLQLLREHGILPRLEAISIEPGEAPAPGHEAAEPRLTRSQALLKAGGNLVRKFDAYGALAPMDDKGLLALMRTPAPHLSPDQMHAFLNKHVLHLTQEQRDIVSNTPLPFAPEGDIEARCGMGFDEKLRLALANGSLVLSEEQLARLGHLPSAATTTSDVVKTLLEKPSSALSEAERDMLGAIVQANGQGQLDAWRAHNEQLPAVLSRSGLPSDVKDELLSLNQSMNAELGTLKNGASFKSRILASPAMLLALAPLPLAVAFVSKDNSYSSSLVAHFTKNAVFMAGLMMNELTNARTNVDHGLNRYFVTVLANAIVAQPTFARNEHLLEQVGFGIATAVASGAATLGVFNRESIVAAFKLAKSKLSRQDTGNASIPEEDHLAVVRHFDVSEHFAQQMKVATELYKQDKSITDIMNSSLTYLGTKSSEFQARFESVDALRAGLQLAEGERKADPDFYTKLGLVALTASIGAALVMLMKSMVGKADYAADGVWCVSEMLKLAMNPEVDMQKAVQVFKEIVGLNLVMTGFLGVNKVWNFLDKGIKGYASGAAVLTAANLTLPGMVGEVAGAAAGKGLSYLTDKGKAAHQAGRAAASWAGNYVGTSRLGSAVGTLQTAIPGRIAGGQVVAGLYDRFRYLTGSHPTPAQQAAGEP”: the “soluble on expression in E. coli” value is “not soluble”.

On to “MPTAADNHWSMPPNPEKALMLAQRAVAVFVYDAVRLEGINFTLPEVQTLLQGVTVGGHRLSDQQIAVNQGEAWKLLFQMIRDGRFELTPDCAMALHGVAAKEEALEWGCFRSGSVLIAGTEYEPPAASELPTRFDRMIDELQHMDDVHDQAVHLFLTMARCQFFYDVNKRMGRFMMNGHLLSNGYPAINIPASSQLEFNELMLRFYDSGDQREMNAFVRSCMDERVVLIMKEELEHHHHHH”, for which the “soluble on expression in E. coli” value was “soluble”.

As to “MPTETLSSVFVLVVLLPTSGLLPRTEAAFVASSSIEYCERSSNGEPFPCEKKMVVGLSVGSEQTIEAEEVVLLREAVDKTGDEKGKRVEFEPIRLVTTKSPVQYRYPIYYIRNFNAKPYEQRLRTSASSWCDDSSNPGSATCGVARDRRGDVIPYSQGFCCLCGACALSGICNPTSRSVGTCSVTGDTGMASCLRFSDLWYGGYTIGRGVVWYELQVKLSSGNNSTGGGSTGSKEFTMSLGPDKLTATSTEFGASARLIGDFAPPEMPLDLSGKMLFIPSEPRGHERVGAGYNEWIIVDTHLVSIRGTECNKVGVSYEGFATQGSRCDAYPGACLANQLEDYRDRDLEAETKGQQGKYMARFFAPFGFDPLANASAPAVAYQVTGTLSTMVTITISADKLNFVLSVSSGVVVGATVSGKVVHSYSRGSTITVTVLNTGDIEAQYTVVVGECTVNVQPMVAQTVYIPLQGSAQRRFTLIVQDSIEGEAKCNATLRNARGDVVDTRAISFGVKALKPSNGSQGGSTFENGRYSEEAKGESQCQQCSWFNLLCFLRHRCWWQPLVYVLPSVTLLMLLRRFLESQSRSRPRPQLHPDEHELRNTGAISSCHLPRAPYVNTVH”, the “soluble on expression in E. coli” value is on record as “not soluble”.

For the sequence “MPTFLELNTTISVKEKELLTKEQFDKLLQAPNTTTLARLLHQSVYHLTVDDLNDLDRLESILMAELTKTYRWAFAETPQPDIVQLFTLRYTYHNVKVLLKAKASQADLSHLLLPIGDKPLVALEHLIRTMTSDEFPKEVVTEIQSIWAEYQDYQDIRVLEIGTDLAYFKALKQIAQRLEDPVFQQAVLIVIDLYNLITVRRAKSQNKPISFMMQLLSDEASRPSKTFITLEDDKDLMTWFENVTPDSYMTALKPYSEKLRQGTLQTTELEYLVDECLYHLFAKAKYQVDGPYVLARFLLAKSFEVKNLRLLAAALANDLPKERVIERMRPIA”, the “soluble on expression in E. coli” value is “not soluble”.

Regarding “MPTKVLVNATYLHSYFREWVKGNIWIHGDRIVYAGERLPDRIDESCEIIDCRGYVLVPGYIEPHVHPFQLYNPHSFARYAAMYGTTTLLNDNLFFLLQLEHHHHHH”, the “soluble on expression in E. coli” value is on record as “not soluble”.

“MPTLIVLIGPTGVGKTELSLRLAENFHTSIVSADSRQLYAELKIGTAAPTPDQLKRVPHYLVGTLHLTDYYSAAQYEQEAMEILHQLFTEHEVVVLTGGSMMYVDAICKGIDDIPTVDAETRQVMLQKYEEEGLEQLCAELRLLDPDYYRIVDLKNPKRVIHALEICYMTGKTYTSFRTQQKKERPFRILKIGLTRDREELYDRINRRVDQMMEEGLLDEVRSVLSYRHLNSLNTVGYKELFKYLDGEWELPFAIEKIKQNSRIYSRKQMTWFKRDEEIRWFHPEQETEILEYLRLQNLTHLPSLDTFLEHHHHHH”: the “soluble on expression in E. coli” value is “soluble”.

On to “MPTPKAFTLLGPTACGKTALALKIAETLPVEIISLDSALLYTGMDIGTAKPSASERAFVPHHLIDIITPVQTYSAARFVEDCTRLTGEITARGKCPLIVGGTMMYFRALTQGLNDLPEADACLRADLDEQKQMYGLDFLYRTLQKVDPETACRLKPNDSQRIGRALEVYYLTGRPMSAHLNGQPEHTLPFELYTAALIPEDRARLHENIALRFHLMLEQGFIGEVENLRRRYPGLTADSPAIRCVGYRQAWEHLDGATDRQTFIEKGIAATRQLAKRQLTWLRKTPLDCVADPFSDGTSGTRLIEAAKRFFGELEHHHHHH”, for which the “soluble on expression in E. coli” value is listed as “soluble”.

Turning to “MPTPYHLNMAAPLRIQLTPEEDRLLLELSLDPRTHKKTRLWAMMVRLAAEGWTAPKIAQHFHKDRTTVYLVLRRFLREGLQGLAYRKPPGAPRKFTPEMAAFVEERLAEDRVWTAPQLAAALAERFGVRLAPKVVARHLRAMGYVWRRTRYVPLGKPTEEEVKAFAEEEEEAKRGRRRG”, the “soluble on expression in E. coli” value is “soluble”.

With “MPTSLKDTVKLHNGVEMPWFGLGVFKVENGNEATESVKAAIKNGYRSIDTAAIYKNEEGVGIGIKESGVAREELFITSKVWNEDQGYETTLAAFEKSLERLQLDYLDLYLIHWPGKDKYKDTWRALEKLYKDGKIRAIGVSNFQVHHLEELLKDAEIKPMVNQVEFHPRLTQKELRDYCKGQGIQLEAWSPLMQGQLLDNEVLTQIAEKHNKSVAQVILRWDLQHGVVTIPKSIKEHRIIENADIFDFELSQEDMDKIDALNKDERVGPNPDELLF”, the “soluble on expression in E. coli” value is “soluble”.

The values above are taken from the DeepSol protein solubility set.
